Laboratory results published in patent US7173007 (University of California, dated 2007).

Biological target: the molecule itself
Test: SDS-PAGE / Western blot, self-association
Procedure: SDS-PAGE and immunoblotting. The purity of cathelin-like or hCAP18/LL-37 protein was first confirmed by SDS-PAGE followed by Coomassie blue and silver staining. For Western blot, protein was separated by SDS-PAGE and was then transferred to nitrocellulose membranes using the Bio-Rad system. Membranes were blocked for 1 h at room temperature with 0.1% low fat milk in 50 mM Tris-HCl, pH 7.5, 150 mM NaCl, 0.2% Tween-20, and were probed overnight at […] with chicken polyclonal anticathelin-like antibodies (1:15,000) to detect cathelin-like protein or with rabbit anti-LL-37 antibodies (1:6000) to detect full-length hCAP18/LL-37, followed by extensive washing. Immunoreactive materials were detected by enhanced chemiluminescence using horseradish peroxidase conjugated antichicken antibodies (1:20,000) or horseradish peroxidase conjugated antirabbit antibodies (1:5000).

B1: His-tagged cathelin-like fusion protein (before enterokinase digestion), approximately 16 kDa (other, not shown: small tags and cut ends)
chain: QVLSYKEAVLRAIDGINQRSSDANLYRLLDLDPRPTMDGDPDTPKPVSFTVKETVCPRTTQQSPEDCDFKKDGLVKRCMGTVTLNQARGSFDISCDKDNKR
notes: also called His-tagged cathelin-like protein before cleavage; cathelin-like protein before digestion with enterokinase
B1: binds.
